Data published in US20160168266A1 (SBI BIOTECH, published 2016).
Residue numbers refer to the chain shown, from its start.

T1: human phospholipase D4 (PLD4) protein (human, UniProt Q96BZ4 1-506)
T1 sequence: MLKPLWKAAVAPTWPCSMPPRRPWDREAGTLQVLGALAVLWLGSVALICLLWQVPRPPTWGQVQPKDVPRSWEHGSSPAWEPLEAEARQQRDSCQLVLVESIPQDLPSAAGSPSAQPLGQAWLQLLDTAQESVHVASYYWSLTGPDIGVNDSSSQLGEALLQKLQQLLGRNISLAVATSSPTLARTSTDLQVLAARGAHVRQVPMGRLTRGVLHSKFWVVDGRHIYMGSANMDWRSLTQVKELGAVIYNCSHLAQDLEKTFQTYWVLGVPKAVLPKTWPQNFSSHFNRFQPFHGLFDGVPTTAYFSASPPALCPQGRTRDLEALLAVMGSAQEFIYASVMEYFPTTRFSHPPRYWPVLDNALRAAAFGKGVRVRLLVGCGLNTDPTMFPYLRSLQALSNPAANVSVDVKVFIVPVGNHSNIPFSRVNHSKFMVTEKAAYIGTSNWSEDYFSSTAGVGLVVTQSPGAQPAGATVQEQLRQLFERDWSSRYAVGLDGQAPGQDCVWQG

B1: chimeric 3B4 antibody (antibody, V domains shown)
VH: EVQLQQSGTVLSRPGASVTMSCKASGDSFTTYWMHWVKQRPGQGLEWIGAIYPGNSETSYNQKFKGKAKLTAVTSASTAYMEFTSLTNEDSAVYYCTGGYSDFDYWGQGTTLTVSS
VL: DILMTQSPSSMSVSLGDTVSITCHASQGIRSNIGWLQQKPGKSFKGLIFHGTNLEDGVPSRFSGRGSGADYSLTINSLESEDFADYYCVQYVQFPPTFGSGTKLEIRR
B2: chimeric 13D4 antibody (antibody, V domains shown)
VH: DVQLQESGPGLVKPSQSLSLTCSVTGYSITSHYYWTWIRQFPGNKLEWMGYISYDGSNNYNPSLKNRISITRDTSKNQFFLKLNSVTTEDTATYNCAREGPLYYGNPYWYFDVWGAGTTVTVSS
VL: DIQMTQTTSSLSASLGDRVTISCRASQDIDNYLNWYQQKPDGTVKLLIYYTSRLHSGVPSRFSGSGSGTDYSLTISNLEQEDVATYFCQQFNTLPRTFGGGTKLEIKR
B3: chimeric 13H11 antibody (antibody, V domains shown)
VH: B2 VH with T30S, T36S, K45R
VL: B2 VL with D17G, R18S, V83I
B4: chimeric 5B7 antibody (antibody, V domains shown)
VH: EVQLQQSGPELVKPGASVKISCKASGYTFTDYNLHWVKQSHGKSLEWIGYIYPYNGNTGYNQKFKRKATLTVDNSSGTVYMELRSLTSEDSAVYYCARGGIYDDYYDYAIDYWGQGTSVTVSS
VL: DIQMTQSPASLSVSVGETVAITCRASENIYSHIAWYQQKEGKSPQRLVYGATNLAHGVPSRFSGSGSGTQYSLKINSLQSEDFGSYYCQHFWGTPWTFGGGTKLEIKR
B5: anti-PLD4 chimeric 11G9.6 antibody (antibody, human IgG1, kappa, V domains shown)
VH: QVQLQQPGAELVKPGTSVKMSCKASGYTFTSYWMHWVKQRPGQGLEWIGDIYPGSDSTNYNEKFKSKATLTVDTSSSTAYMQLSSLTSEDSAVYYCARGGWLDAMDYWGQGTSVTVSS
VL: B2 VL with D30S, V83I, F91G, R96W
B6: anti-PLD4 mouse 8C11 antibody (antibody, mouse IgG2b, V domains shown)
VH: QVQLQQSGAELVKPGASVKLSCKASGYTFTSYYLYWVRQRPGQGLEWIGLINPTNSDTIFNEKFKSKATLTVDKSSSTAYMQLSSLTSEDSAVYYCTREGGYGYGPFAYWGQGTLVTVSA
VL: DVVMTQTPLSLPVSLGDQASISCTSSQTLVHSNGNTYLHWYLQKPGQSPKLLIYKVSNRFSGVPDRFSGSGSGTDFTLKISRVEAEDLGVYFCSHSTHVPFTFGSGTKLEIKR
notes: Mouse IgG2b, kappa monoclonal antibody
B7: anti-PLD4 mouse 10C3 antibody (antibody, mouse IgG2a, V domains shown)
VH: EVQLVESGGDLVRPGGSLKLSCAASGFSFSSYGMSWFRQTPDKRLEWVATISSGGSYIYYPESVKGRFTISRDNARNILYLQMSSLKSEDTAMYYCVRLYGGRRGYGLDYWGQGTSVTVSS
VL: EIVMTQAAFSNPVTLGTSASISCRSSKSLLHSDGITYLYWYLQKPGQSPQLLIYQMSNLASGVPDRFSSSGSGTDFTLRISRVEAEDVGVYYCAQNLELYTFGGGTKLEIKR
notes: Mouse IgG2a, kappa monoclonal antibody
B8: anti-PLD4 mouse 11D10 antibody (antibody, mouse IgG2b, V domains shown)
VH: B7 VH
VL: B7 VL
notes: Mouse IgG2b, kappa monoclonal antibody with the same CDRs as 10C3

Each binder was assayed against T1, human phospholipase D4 (PLD4) protein (assay: cell-based or functional assay).

| Binder | PLD4+ activated B cells after culture of PBMC with CpG2006 and the chimeric antibody, with control Ig treatment taken as 100% [%] |
| --- | --- |
| B1 | 70.2 |
| B2 | 56 |
| B3 | 55.3 |
| B4 | 25.8 |
| B5 | 66.4 |

These binders were tested against T1, human phospholipase D4 (PLD4) protein (assay: FACS screening of hybridoma culture supernatant (CAL-1 cells)).

| Binder | binding result |
| --- | --- |
| B6 | binds |
| B7 | binds |
| B8 | binds |
